Source: patent US20170007716A1 (ONCOMATRYX BIOPHARMA S L, published 2017)

Assays:
[1] = target: T1, human FAP on HT1080 cells (HT1080-huFAP, stable transfectants) (human, UniProt Q12884 1-760); assay: cell-based or functional assay
T1 sequence: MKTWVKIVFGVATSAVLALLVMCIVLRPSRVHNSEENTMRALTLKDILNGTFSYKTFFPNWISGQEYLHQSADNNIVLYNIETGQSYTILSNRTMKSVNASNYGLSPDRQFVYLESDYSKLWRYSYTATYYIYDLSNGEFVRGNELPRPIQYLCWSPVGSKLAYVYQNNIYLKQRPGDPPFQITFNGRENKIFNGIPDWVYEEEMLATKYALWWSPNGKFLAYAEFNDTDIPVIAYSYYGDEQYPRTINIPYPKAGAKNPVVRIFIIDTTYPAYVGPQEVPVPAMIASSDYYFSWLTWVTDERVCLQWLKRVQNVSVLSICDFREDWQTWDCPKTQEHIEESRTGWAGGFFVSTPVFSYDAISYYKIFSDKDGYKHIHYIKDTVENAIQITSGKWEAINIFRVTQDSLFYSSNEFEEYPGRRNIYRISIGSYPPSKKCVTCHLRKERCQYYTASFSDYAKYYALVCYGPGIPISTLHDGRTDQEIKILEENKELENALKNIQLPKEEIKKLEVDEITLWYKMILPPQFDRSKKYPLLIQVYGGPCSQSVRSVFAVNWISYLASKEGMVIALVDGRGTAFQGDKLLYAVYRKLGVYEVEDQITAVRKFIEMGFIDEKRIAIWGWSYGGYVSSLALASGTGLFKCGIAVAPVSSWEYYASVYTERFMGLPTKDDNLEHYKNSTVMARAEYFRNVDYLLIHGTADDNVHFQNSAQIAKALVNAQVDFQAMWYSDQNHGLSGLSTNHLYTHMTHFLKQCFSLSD

[2] = target: T1, human FAP on HT1080 cells …; assay: cell-based or functional assay; remark: listed apart in the source
[3] = target: T2, recombinant human FAP (extracellular region aa 26-760; R&D systems) (human, UniProt Q12884 26-760); assay: ELISA, recombinant FAP coated
T2 construct: also called rhFAP; recombinant FAP
T2 sequence: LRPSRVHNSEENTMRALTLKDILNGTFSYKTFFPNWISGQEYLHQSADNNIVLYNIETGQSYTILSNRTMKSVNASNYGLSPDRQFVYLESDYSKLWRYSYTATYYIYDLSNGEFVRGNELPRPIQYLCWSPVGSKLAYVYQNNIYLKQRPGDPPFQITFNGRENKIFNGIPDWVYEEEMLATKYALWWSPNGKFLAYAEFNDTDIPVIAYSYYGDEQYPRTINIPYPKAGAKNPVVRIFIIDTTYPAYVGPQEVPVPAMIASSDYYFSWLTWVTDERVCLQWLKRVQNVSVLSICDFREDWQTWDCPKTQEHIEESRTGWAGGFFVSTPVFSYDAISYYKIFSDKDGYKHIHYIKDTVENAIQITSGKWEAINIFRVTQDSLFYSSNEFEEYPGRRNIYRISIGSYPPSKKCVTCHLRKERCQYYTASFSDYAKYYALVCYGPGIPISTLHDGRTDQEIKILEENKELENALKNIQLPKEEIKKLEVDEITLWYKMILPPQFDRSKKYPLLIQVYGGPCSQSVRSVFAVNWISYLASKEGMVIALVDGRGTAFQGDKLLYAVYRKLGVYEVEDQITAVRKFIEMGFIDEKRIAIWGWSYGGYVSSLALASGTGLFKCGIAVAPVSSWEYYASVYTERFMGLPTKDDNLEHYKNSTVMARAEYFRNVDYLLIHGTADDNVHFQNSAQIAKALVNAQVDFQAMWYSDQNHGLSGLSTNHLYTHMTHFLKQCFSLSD

[4] = target: T2, recombinant human FAP (extracellular …); assay: QCM (Attana A100), rhFAP; KD2
[5] = target: T3, mouse FAP on HT1080 cells (HT1080-moFAP) (mouse, UniProt P97321 1-761); assay: flow cytometry, HT1080-moFAP cells
T3 construct: Murine FAP on stably transfected HT1080 cells; also called murine FAP
T3 sequence: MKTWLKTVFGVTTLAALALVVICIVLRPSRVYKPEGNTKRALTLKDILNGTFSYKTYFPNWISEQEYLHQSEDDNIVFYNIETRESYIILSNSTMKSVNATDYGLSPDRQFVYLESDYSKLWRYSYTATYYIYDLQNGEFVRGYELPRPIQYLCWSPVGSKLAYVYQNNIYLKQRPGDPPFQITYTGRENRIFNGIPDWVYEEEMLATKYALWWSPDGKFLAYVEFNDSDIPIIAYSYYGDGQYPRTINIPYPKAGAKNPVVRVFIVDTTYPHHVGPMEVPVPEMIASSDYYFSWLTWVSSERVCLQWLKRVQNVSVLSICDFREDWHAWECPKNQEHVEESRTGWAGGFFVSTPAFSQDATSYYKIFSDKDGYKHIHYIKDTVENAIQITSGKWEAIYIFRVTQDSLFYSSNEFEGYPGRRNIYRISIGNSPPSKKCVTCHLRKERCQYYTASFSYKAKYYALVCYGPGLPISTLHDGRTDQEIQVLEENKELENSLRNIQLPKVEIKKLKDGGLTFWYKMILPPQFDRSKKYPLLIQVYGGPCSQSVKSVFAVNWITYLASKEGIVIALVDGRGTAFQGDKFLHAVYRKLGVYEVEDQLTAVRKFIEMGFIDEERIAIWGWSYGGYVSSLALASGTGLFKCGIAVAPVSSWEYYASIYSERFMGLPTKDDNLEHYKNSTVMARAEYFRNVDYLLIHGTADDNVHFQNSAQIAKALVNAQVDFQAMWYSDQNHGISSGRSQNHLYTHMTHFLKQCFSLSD

[6] = target: T1, human FAP on HT1080 cells …; assay: flow cytometry, HT1080-huFAP cells
[7] = target: T1, human FAP on HT1080 cells …; assay: FACS, HT1080-huFAP cells
[8] = target: T3, mouse FAP on HT1080 cells (HT1080-moFAP); assay: FACS, HT1080-moFAP cells
[9] = target: T2, recombinant human FAP (extracellular …); assay: ELISA, rhFAP
[10] = target: T2, recombinant human FAP (extracellular …); assay: QCM (Attana A100), rhFAP; KD1

B1: Anti-FAP hu36-IgG1-recNgA immunotoxin conjugate HPS131-001-1 (antibody)
heavy: QVQLVQSGAEVKKPGASVKVSCKASGYTFTENIIHWVRQAPGQGLEWMGWFHPGSGSIKYNEKFKDRVTMTADTSTSTVYMELSSLRSEDTAVYYCARHGGTGRGAMDYWGQGTLVTVSSASTKGPSVFPLAPSSKSTSGGTAALGCLVKDYFPEPVTVSWNSGALTSGVHTFPAVLQSSGLYSLSSVVTVPSSSLGTQTYICNVNHKPSNTKVDKKVEPKSCDKTHTCPPCPAPPVAGPSVFLFPPKPKDTLMISRTPEVTCVVVDVSHEDPEVKFNWYVDGVEVHNAKTKPREEQYNSTYRVVSVLTVLHQDWLNGKEYKCKVSNKGLPSSIEKTISKAKGQPREPQVYTLPPSRDELTKNQVSLTCLVKGFYPSDIAVEWESNGQPENNYKTTPPVLDSDGSFFLYSKLTVDKSRWQQGNVFSCSVMHEALHNHYTQKSLSLSPGK
light: DIQMTQSPSSLSASVGDRVTITCRASKSVSTSAYSYMHWYQQKPGKAPKLLIYLASNLESGVPSRFSGSGSGTDFTLTISSLQPEDFATYYCQHSRELPYTFGQGTKLEIKRTVAAPSVFIFPPSDEQLKSGTASVVCLLNNFYPREAKVQWKVDNALQSGNSQESVTEQDSKDSTYSLSSTLTLSKADYEKHKVYACEVTHQGLSSPVTKSFNRGEC
chain: MIDYPSVSFNLDGAKSATYRDFLSNLRKTVATGTYEVNGLPVLRRESEVQVKSRFVLVPLTNYNGNTVTLAVDVTNLYVVAFSGNANSYFFKDATEVQKSNLFVGTKQNTLSFTGNYDNLETAANTRRESIELGPSPLDGAITSLYHGDSVARSLLVVIQMVSEAARFRYIEQEVRRSLQQATSFTPNALMLSMENNWSSMSLEIQQAGNNVSPFFGTVQLLNYDHTHRLVDNFEELYKITGIAILLFRCSSPSND
modifications: single cysteine in a hindered disulphide bond to the SMPT-derivatised antibody; derivatised with SMPT on amino groups; disulphide link to recNgA
cytotoxicity on HT1080-FAP cells (cell viability), IC50 [1]: 5000 nM

B2: ADC-558 (HPS-157-039-005), anti-FAP hu36:TAM558 ADC (antibody, V domains shown)
VH: QVQLVQSGAEVKKPGASVKVSCKASGYTFTENIIHWVRQAPGQGLEWMGWFHPGSGSIKYNEKFKDRVTMTADTSTSTVYMELSSLRSEDTAVYYCARHGGTGRGAMDYWGQGTLVTVSS
VL: DIQMTQSPSSLSASVGDRVTITCRASKSVSTSAYSYMHWYQQKPGKAPKLLIYLASNLESGVPSRFSGSGSGTDFTLTISSLQPEDFATYYCQHSRELPYTFGQGTKLEIKR
modifications: cytolysin-linker TAM558 on cysteine residues (not site-specific); cytolysin-linker TAM558 (vcPABA linker in R4 with 3 ethylene glycol spacer) on cysteine residues (not site-specific), DAR 3.92 for the whole antibody
specificity ratio between FAP(+) and FAP(-) HT1080 cells (cytotoxic activity) [1]: 500
IC50 in Proliferation Arrest Assay (nM), HT1080-FAP [2]: 0.96 nM

B3: humanized anti-FAP IgG1 hu36 (hu36-IgG1) (antibody, V domains shown)
VH: QVQLVQSGAEVKKPGASVKVSCKASGYTFTENIIHWVRQAPGQGLEWMGWFHPGSGSIKYNEKFKDRVTMTADTSTSTVYMELSSLRSEDTAVYYCARHGGTGRGAMDYWGQGTLVTVSS
VL: DIQMTQSPSSLSASVGDRVTITCRASKSVSTSAYSYMHWYQQKPGKAPKLLIYLASNLESGVPSRFSGSGSGTDFTLTISSLQPEDFATYYCQHSRELPYTFGQGTKLEIKR
notes: Full-length humanized IgG1/kappa, gamma1* = deficient for ADCC and CDC; made in CHO cells; also called anti-hu/moFAP hu36; naked anti-FAP hu36-IgG1
EC50 [3]: ~5 nM
Kd [4]: 0.4 nM
EC50 [5]: 0.25 nM
EC50 [6]: 0.33 nM
EC50 [7]: 0.3 nM
EC50 [8]: 0.2 nM
EC50 [9]: 3 nM
Kd [10]: 218 nM
